# Starred links: 1 amine or outer side, 2 acyl side, 3 side chain; linkers in the order of their positions; H or OH if unused. Non-standard residues stand in square brackets, D forms with d. Residues, ends and D or L forms follow the SMILES beside them. Primed or numbered codes have the meaning given here. No end group written: not given here. *: point of attachment. GlyA = glycolic acid (-OCH2CO2H), esterified to the C-terminal carboxyl, O=C(O)CO*; GlyA″ = glycolic acid, ester to the C-terminal carboxyl, -OCH2CO2H, O=C(O)CO*; LacA″ = lactic acid residue, ester -OCH(CH3)CO2H at the C-terminus; Cys(S-allyl) = S-allylcysteine, C=CCSC[C@H](N[*:1])C(=O)[*:2]; Cys(S-Me) = S-methylcysteine, CSC[C@H](N[*:1])C(=O)[*:2]; γGlu = O=C(O)[C@H](CCC(=O)[*:2])N[*:1]; Tle = CC(C)(C)[C@H](N)C(=O)O; Orn = NCCC[C@H](N)C(=O)O; Abu = CC[C@H](N)C(=O)O; LacA = lactic acid
# Biological target: T1, human calcium receptor (human, UniProt P41180 20-1078)
# T1 sequence (looked up): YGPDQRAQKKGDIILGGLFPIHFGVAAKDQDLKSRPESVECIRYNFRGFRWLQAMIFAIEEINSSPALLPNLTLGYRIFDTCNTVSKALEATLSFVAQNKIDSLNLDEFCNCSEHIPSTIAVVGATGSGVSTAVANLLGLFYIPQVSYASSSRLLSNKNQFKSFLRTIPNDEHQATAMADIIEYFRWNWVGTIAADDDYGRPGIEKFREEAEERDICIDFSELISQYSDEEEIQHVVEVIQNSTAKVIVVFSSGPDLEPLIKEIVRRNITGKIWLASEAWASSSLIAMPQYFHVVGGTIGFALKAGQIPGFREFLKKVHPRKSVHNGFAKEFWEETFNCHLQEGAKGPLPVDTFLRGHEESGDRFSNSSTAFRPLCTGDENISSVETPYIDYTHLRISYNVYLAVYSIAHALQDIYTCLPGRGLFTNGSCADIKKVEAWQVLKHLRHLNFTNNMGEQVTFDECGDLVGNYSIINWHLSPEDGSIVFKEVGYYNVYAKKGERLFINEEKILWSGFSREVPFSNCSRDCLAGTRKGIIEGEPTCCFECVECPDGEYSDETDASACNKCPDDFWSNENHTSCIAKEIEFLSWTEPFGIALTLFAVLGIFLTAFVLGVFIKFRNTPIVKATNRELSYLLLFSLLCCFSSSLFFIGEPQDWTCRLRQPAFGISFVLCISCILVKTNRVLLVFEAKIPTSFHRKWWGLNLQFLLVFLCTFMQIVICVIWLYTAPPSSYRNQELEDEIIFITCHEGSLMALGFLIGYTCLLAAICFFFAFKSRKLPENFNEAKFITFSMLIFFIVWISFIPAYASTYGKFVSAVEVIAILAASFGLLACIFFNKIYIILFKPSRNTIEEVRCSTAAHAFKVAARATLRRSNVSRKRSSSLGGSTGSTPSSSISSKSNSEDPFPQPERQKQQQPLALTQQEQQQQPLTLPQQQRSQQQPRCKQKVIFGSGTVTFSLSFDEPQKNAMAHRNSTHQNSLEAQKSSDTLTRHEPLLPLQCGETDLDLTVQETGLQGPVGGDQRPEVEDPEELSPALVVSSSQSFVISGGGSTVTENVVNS
# Test: cell-based or functional assay
# Details: not given
row,Molecule,"EC50, calcium imaging (Calcium 3 assay kit, FLEXSTATION) in HEK 293 cells expressing human CaSR [nM]"
1,[γGlu]-[Abu]-{LacA″} [γ-Glu-Abu-LacA],102
2,[γGlu]-[Tle]-{LacA″} [γ-Glu-t-Leu-LacA],38
3,[γGlu]-Val-GlyA [γ-Glu-Val-GlyA],140
4,[γGlu]-[Tle]-{GlyA″} [γ-Glu-t-Leu-GlyA],50
5,[γGlu]-Val-LacA [γ-Glu-Val-LacA],57

# Tested on: rat large intestine loop
# Test: Fluid absorption in rat large intestine loop method (PGE2-stimulated)
# Type: in vivo, rats
# Details: injected into loop 30 minutes after PGE2 i.p.; measured after 1 hour
# Method: The cecum and large intestine were extirpated from the abdomen of each of male SD (IGS) rats under pentobarbital anesthesia, and the site 5 cm away from the area just under the cecum was ligated to form a large intestine loop Immediately after the loop had been formed, PGE2 (4 μg/ml/kg, SIGMA) was intraperitoneally administered, and after 30 minutes, a medicament, which had been dissolved in 2 ml of Tyrode's solution (NaCl: 136.9 mM, KCl: 2.7 mM, CaCl2.2H2O: 1.8 mM, MgCl2.6H2O: 1.04 mM, NaH2PO4.2H2O: 0.04 mM, NaH2PO4.2H2O: 0.04 mM, glucose: 5.55 mM, NaHCO3: 11.9 mM), was injected into the prepared loop (the medicament solution was adjusted so that the pH would be 6.5 to 7.5). As a control, Tyrode's solution free of any medicament (vehicle) was administered. After 1 hour, the loop weight, the loop weight after solution removal, and the loop area were measured to calculate a solution weight per unit area remaining in the loop.
# The remaining solution amount per unit area was calculated with the following equation:
# Remaining solution amount per unit area(g/cm^2)=(Loop weight−Loop weight after solution removal)/Loop area.
# The fluid absorption was evaluated by calculating an inhibitory rate from the following equation:
# Inhibitory rate(%)=100−(Remaining solution amount per unit area under drug administration−Remaining solution amount per unit area in base(average))/(Remaining solution amount per unit area under vehicle administration(average)−Remaining solution amount per unit area in base(average))×100.
# (Base=case where no stimulation is given (no treatment with PGE2))
row,Molecule,fluid absorption (inhibitory rate from remaining solution amount per unit area)
1,CC(C)(C)[C@H](NC(=O)CC[C@H](N)C(=O)O)C(=O)NCC(=O)O [γ-Glu-t-Leu-Gly] (γGlu-[Tle]-Gly-OH),promoted fluid absorption

# Biological target: T2, human calcium receptor (Homo sapiens, UniProt P41180)
# T2 construct: expressed in transfected cells; host or cells: Xenopus laevis oocytes injected with cRNA
# T2 sequence (P41180 20-1078): T1 sequence (looked up)
# Test: Ca ion concentration-dependent Cl ionic current measurement in Xenopus laevis oocytes expressing the calcium receptor
# Type: cell-based
# Details: D-amino acid added at 10 mM; oocytes clamped at -70 mV
# Method: For evaluation of the calcium receptor-activating action, a Ca ion concentration-dependent Cl ionic current measuring method using a Xenopus laevis oocyte expression system was used. If each activator is added to Xenopus laevis oocytes expressing the calcium receptor, intracellular Ca ions increase. Then, the Ca ion concentration-dependent Cl channel opens, and the intracellular current value changes as an ionic current. By measuring the change in the intracellular current value, whether the calcium receptor-activating action is present or not can be determined.
# Specifically, the abdomen of Xenopus laevis was opened, and an egg batch was taken out and then treated with a 1% collagenase solution at 20° C. for 2 hours to obtain individual oocytes. Into the oocytes, 50 nl of 1 μg/μl receptor cRNA or 50 nl of sterilized water per oocyte were injected by using a micro glass capillary, and the oocytes were cultured at 18° C. for 2 to 3 days. For the culture, a solution obtained by adding 2 mM pyruvic acid, 10 U/ml penicillin, and 10 μg/ml streptomycin to the solution in Example 2 was used. After the culture, a test solution was added to the oocytes injected with cRNA or sterilized water. Electrophysiological measurement was performed by using an amplifier Geneclamp 500 (manufactured by Axon) and recording software AxoScope 9.0 (manufactured by Axon). The oocytes were membrane potential-clamped at −70 mV by the double electrode potential clamp method, and the intracellular current was measured via the Ca ion concentration-dependent Cl ion channel. The maximum value of the intracellular current was defined as the response current value. […]
# The calcium receptor-activating action of L-amino acids was evaluated by using the method described in Example 13. That is, oocytes injected with cRNA of the calcium receptor or sterilized water were prepared, and membrane potential-clamped at −70 mV by the double electrode potential clamp method. To the potential-clamped oocytes, alanine (10 mM), arginine (10 mM), asparagine (10 mM), aspartic acid (10 mM), cysteine (10 mM), glutamine (10 mM), glutamic acid (10 mM), glycine (10 mM), histidine (10 mM), isoleucine (10 mM), leucine (10 mM), lysine (10 mM), methionine (10 mM), phenylalanine (10 mM), proline (10 mM), serine (10 mM), threonine (10 mM), tryptophan (10 mM), tyrosine (10 mM), valine (10 mM), ornithine (10 mM), taurine (10 mM), or hydroxyproline (10 mM) was added, and Ca ion concentration-dependent Cl response current was measured. […] As for the above-described amino acids, the activating action is reported in Proc. Natl. Acad. Sci. USA, Apr. 25, 2000, 97(9): 4814-9.
# The calcium receptor-activating action of D-cysteine was evaluated by using the method described in Example 13. That is, oocytes injected with cRNA of the calcium receptor or sterilized water were prepared, and membrane potential-clamped at −70 mV by the double electrode potential clamp method. To the potential-clamped oocytes, D-cysteine (10 mM), L-cysteine (10 mM), D-tryptophan (10 mM), or L-tryptophan (10 mM) was added, and Ca ion concentration-dependent Cl response current was measured.
# The calcium receptor-activating action of a peptide was evaluated by using the method described in Example 13. That is, oocytes injected with cRNA of the calcium receptor or sterilized water were prepared, and membrane potential-clamped at −70 mV by the double electrode potential clamp method.
row,Molecule,calcium receptor-activating action (Ca ion concentration-dependent Cl response current)
1,"N[C@H](CS)C(=O)O [D-cysteine, reference compound]",definite calcium receptor-activating action

# Same assay, conditions: L-amino acid added at 10 mM; oocytes clamped at -70 mV
row,Molecule,calcium receptor-activating action (Ca ion concentration-dependent Cl response current)
1,"N[C@@H](Cc1c[nH]c2ccccc12)C(=O)O [tryptophan, reference compound]",definite calcium receptor-activating action
2,"N[C@@H](Cc1ccccc1)C(=O)O [phenylalanine, reference compound]",definite calcium receptor-activating action
3,"N[C@@H](Cc1ccc(O)cc1)C(=O)O [tyrosine, reference compound]",definite calcium receptor-activating action
4,"N[C@@H](Cc1c[nH]cn1)C(=O)O [histidine, reference compound]",definite calcium receptor-activating action
5,"N[C@@H](CS)C(=O)O [cysteine, reference compound]",definite calcium receptor-activating action

# Same assay, conditions: peptide added at 50 μM
row,Molecule,calcium receptor-activating action (Ca ion concentration-dependent Cl response current)
1,N[C@@H](CCC(=O)N[C@@H](CSN=O)C(=O)NCC(=O)O)C(=O)O [γ-Glu-Cys(SNO)-Gly],definite calcium receptor-activating action

# Same assay, conditions: peptide added at 500 μM
row,Molecule,calcium receptor-activating action (Ca ion concentration-dependent Cl response current)
1,γ-Glu-Orn ([γGlu]-[Orn]),definite calcium receptor-activating action

# Same assay, conditions: peptide added at 1,000, 300, 100, 30, 10, 3, 1, 0.3 and 0.1 μM
row,Molecule,Activity (lowest concentration at which current was detected)
1,γ-Glu-Val-Asp,"1,000 μM"
2,γ-Glu-Val-Gln ([γGlu]-Val-Gln),10 µM
3,γ-Glu-Abu-Gly ([γGlu]-[Abu]-Gly),3 µM
4,γ-Glu-Val-Thr ([γGlu]-Val-Thr),"1,000 μM"
5,γ-Glu-Val-His ([γGlu]-Val-His),100 µM
6,γ-Glu-t-Leu ([γGlu]-[Tle]),100 µM
7,γ-Glu-Cys(S-allyl)-Gly ([γGlu]-[Cys(S-allyl)]-Gly),100 µM
8,γ-Glu-Val-Asn ([γGlu]-Val-Asn),30 µM
9,γ-Glu-Val-Glu ([γGlu]-Val-Glu),"1,000 μM"
10,γ-Glu-Tau ([γGlu]-[Tau]),300 µM
11,γ-Glu-Val-Orn ([γGlu]-Val-[Orn]),100 µM
12,γ-Glu-γ-Glu-Val ([γGlu]-[γGlu]-Val),"1,000 μM"
13,γ-Glu-Ser-Gly ([γGlu]-Ser-Gly),30 µM
14,γ-Glu-Val-Arg ([γGlu]-Val-Arg),"1,000 μM"
15,γ-Glu-Gly-Gly ([γGlu]-Gly-Gly),30 µM
16,γ-Glu-Val-Val ([γGlu]-Val-Val),"1,000 μM"
17,γ-Glu-Val-Ser ([γGlu]-Val-Ser),30 µM
18,γ-Glu-Val-Pro ([γGlu]-Val-Pro),30 µM
19,γ-Glu-Val-Met ([γGlu]-Val-Met),"1,000 μM"
20,γ-Glu-Val-Lys ([γGlu]-Val-Lys),"1,000 μM"
21,γ-Glu-Val-Phe ([γGlu]-Val-Phe),30 µM
22,γ-Glu-Val-Cys ([γGlu]-Val-Cys),10 µM
23,γ-Glu-Cys(S-Me)-Gly ([γGlu]-[Cys(S-Me)]-Gly),3 µM
